Test [1] deals with iPHF (Homo sapiens (Human), UniProt P10636-8). The experiment in a line: Octet, antibody on biosensor tips. How it is done:
Anti-human tau antibodies were assessed for affinity for iPHF by Octet (ForteBio, Menlo Park, CA) analysis. Recombinant mouse IgG antibodies were prepared with clone-specific variable domain pairs selected from those presented in Table 3 and mouse IgG1 constant domains. Candidate antibodies were immobilized on biosensor tips (ForteBio) in kinetic buffer (ForteBio). Biosensor tips were then washed before introduction of a solution of iPHF in kinetic buffer for analysis of association and dissociation with candidate antibodies. Affinity measurements (K_D) were obtained using Data Analysis HT version 11.1 and corrected for background and high-frequency noise.

The target of test [2] is T1, enriched paired helical filament tau protein (ePHF) (human, phosphorylated residues of pathological tau, sites not stated). The experiment in a line: direct ELISA. How it is done: (§1) Variable domain nucleic acid sequences from antibodies obtained from immunizations described above were used to prepare recombinant mouse IgG antibodies. These candidate antibodies were analyzed for binding to ePHF and specificity for ePHF over wild type tau by direct ELISA.
(§2) For direct ePHF and wildtype tau ELISA, plates were first coated with ePHF or wild type tau. Antigen solutions were prepared in PBS and 50 μL were pipetted into each well. Plates were covered and incubated for one hour at 37° C. or overnight at 4° C. Plates were then washed and blocked by addition of 150 μl of blocking buffer to each well and incubated one hour at room temperature. Plates were then washed before addition of serially diluted candidate antibody samples prepared in blocking buffer. Detection of candidate antibody binding was carried out by washing plates and adding a solution of enzyme-labeled secondary antibody in blocking buffer to each well. Secondary antibody binding was detected by addition of substrate and spectrophotometric analysis of resulting reaction product.
Background: An ELISA detects its analyte on a solid surface through an enzyme-linked reagent.

For test [3], the target named is wild type tau (Homo sapiens (Human), UniProt P10636-8). The test can be described thus: direct ELISA. How it is done: as §1, §2
Test [4] deals with T1, enriched paired helical filament tau …. The experiment in a line: follow up analysis, method not stated.

B1: V0050 (antibody, V domains shown)
VH: EVQLQQSGPELVKPGASVKIPCRASGYTFTDYNMDWVKQSHGKTLEWIGDINPNNGGTIYNQKFKGKATLTVDKSSSTAYMELRSLTSEDTAVYYCARGRGMGYYALDYWGQGTSVTVSS
VL: DIQMTQSPASLSASVGETVTFTCGASENVYGALNWYQRKQGKSPQLLIYGATNLADGMSSRFSGSGSGRQYSLKISSLHPDDVATYYCQNVLTIPWTFGGGAKLEIK
Take B1: in test [1], binding was characterised by a dissociation constant (Kd) of 0.4 nM. The EC50 (usually the concentration needed to bring the measured effect to its halfway point) in test [2] turned out to be 17.9 nM.

B2: V0035 (antibody, V domains shown)
VH: EAQLQQSGAELVRPGSSVKMSCKTSGYTFTSYGINWVKQRPGQGLEWIGYIYIRNGNTAYNEKFKGKATVTSDTSSSTVYMQLSSLTSEDSAIYFCAGTGTSFTYWGQGTLVTVSA
VL: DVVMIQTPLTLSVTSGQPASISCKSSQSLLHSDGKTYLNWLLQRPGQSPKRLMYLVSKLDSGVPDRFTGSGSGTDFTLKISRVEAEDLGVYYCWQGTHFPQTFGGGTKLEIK
Turning to B2, the EC50 was determined as 0.315 nM in test [2] and 0.169 nM in test [3].

B3: V0034 (antibody, V domains shown)
VH: EVQLQQSGAELVRPGSSVKMSCKTSGYTFTSYGINWVKQRPGQGLEWVGYIYIRDGNTAYNEKFKGKATVTSDTSSSTVYMQLSSLTSEDSAIYFCAGTGTSFAYWGQGTLVTVSA
VL: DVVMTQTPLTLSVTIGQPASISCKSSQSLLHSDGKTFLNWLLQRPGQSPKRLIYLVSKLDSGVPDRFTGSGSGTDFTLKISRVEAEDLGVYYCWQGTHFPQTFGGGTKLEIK
Take B3: the EC50 in test [2] was 0.351 nM; in test [3], 0.14 nM.

B4: V00018 (antibody, V domains shown)
VH: QVQLQQPGADLVRPGSSVKLSCKASGYTFTRSWMHWVKQRPIEGLEWIGNIDPSDSEAHYNQKFKDKATLTVDKFSNTAYMQLSSLTSEDSAVYYCARWDDFYVAYWGQGTLVTVSA
VL: DIVLTQSPASLAVSLGQRATISCRASKSVSTSGYSYIHWYQQKPGQPPKLLIYLASNLESGVPARFSGSGSGTDFTLNIHPVEEEDAATYYCQHSRELPWTFGGGTKLEIK
B4: the EC50 turned out to be 0.718 nM in test [2] and 0.238 nM in test [3].

B5: V00019 (antibody, V domains shown)
VH: QVQLQQPGAALVRPGSSVKLSCKASGYTFTSSWMHWVKQRPIQGLEWIGNIDPSDGETHYNQKFKDKATLTVDKSSNTAYMQLSSLTSEDSAVYYCARWDDYYVAYWGQGTLVTVSA
VL: DIVLTQSPASLAVSLGQRATISCRASKSVSTSGYSYMHWYQQKPGQPPKLLIYLASNLESGVPARFSGSGSGTDFTLNIHPVEEEDAATYYCLHSRELPWTFGGGTKLEIK
In the case of B5, in test [3], the EC50 is 0.285 nM.

B6: V0033 (antibody, V domains shown)
VH: EVQLQQSGAELVRPGSSVKMSCKTSGYTFTSYGINWVKQRPGQGLEWIGYIYIGNGHTEYNEKFEGKATLTSDTSSSTAYMQLSSLTSEDSAIYFCAGTGTLFDYWGQGTTLTVSS
VL: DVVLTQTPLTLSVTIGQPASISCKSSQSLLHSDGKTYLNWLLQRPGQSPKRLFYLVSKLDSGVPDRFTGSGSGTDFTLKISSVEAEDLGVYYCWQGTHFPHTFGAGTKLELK
Consider B6, for which, in test [3], the midpoint of the response, the EC50, lay at 0.342 nM.

B7: V00016 (antibody, V domains shown)
VH: EVQLQQSGAELVKPGASVKLSCTASGFNIKDYYIHWVKQRTEQGLEWIGRIDPEDGETKYAPKFQGKATIAADTSSNTAYLHLNSLTSEDTAVYYCAREFSYAMDYWGQGTSVTVSS
VL: NIMMTQSPSSLAVSAGEKVTMSCKSSQSVLYSSNQKNYLAWYQQKPGQSPKLLIYWASTRESGVPDRFTGSGSGTDFTLTISSVQAEDLAVYYCHQYLSSRTFGGGTKLEIK
B7 displayed an EC50 in test [3] of 0.141 nM.

B8: V0020 (antibody, V domains shown)
VH: QVQLQQPGTDLVKPGASVKLSCKASGYTFTSYWMHWLKQRPGQGLEWIGNINPNNSDANYNEKFKSKATLTVDKSSSAAYMQLISLTSEDSAVYYCARANYYGGSQFAYWGQGTLVTVSA
VL: DVVVTQTPLSLPVSLGDQASISCRSSQSLVHSNGKTYLHWYLQKPGQSPNLLIYKVSNRFSGVPDRFSGSGSGTDFTLKISRVEAEDLGVYFCSQSTHVPFTFGSGTKLEIK
With B8, the dissociation constant Kd (as a rule, the equilibrium constant for the complex coming apart) in test [1] is 32.7 nM. The same molecule yielded an EC50 in test [2] of 0.351 nM.

B9: V0021 (antibody, V domains shown)
VH: QVQLQQPGIELVKTGASVKLSCKASGYTFTSNWMHWLKQRPGQGLEWIGNINPNNSETNYNEKFRKKATLTVDKSSSAAYMQLISLTSEDSAVYYCARANYYGGSQFAYWGQGTLVTVSA
VL: DVVMTQTPLSLCVSLGDQASISCRSSQSLVHSNGKTYLHWYLQKPGQSPNLLIYKVSNRFSGVPDRFSGSGSGTDFTLKISRVEAEDLGVYFCSQSTHVPFTFGSGTKLEIK
In turn, B9 showed a dissociation constant (Kd) in test [1] of 15.1 nM. In test [2], the EC50 is 0.571 nM.

B10: V0058 (antibody, V domains shown)
VH: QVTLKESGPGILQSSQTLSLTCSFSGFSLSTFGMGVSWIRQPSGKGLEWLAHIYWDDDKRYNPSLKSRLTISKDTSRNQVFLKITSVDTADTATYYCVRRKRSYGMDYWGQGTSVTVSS
VL: DIVMTQSPSSLSVSAGEKVTMSCKSSQSLLSSGNQKNYLAWYQQKPGQPPKLLIYGASTRESGVPDRFTGSGSGTDFTLTISSVQAEDLAVYYCQNDHSHPYTFGGGTKLEIK
With B10, in test [1], the Kd came out at 1 nM. Besides, the EC50 in test [2] amounted to 2.45 nM.

B11: V0055 (antibody, V domains shown)
VH: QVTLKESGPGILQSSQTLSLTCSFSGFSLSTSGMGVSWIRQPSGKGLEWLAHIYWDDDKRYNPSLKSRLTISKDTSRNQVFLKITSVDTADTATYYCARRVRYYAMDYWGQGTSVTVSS
VL: DIVMTQSPSSLSVSAGEKVTMSCKSSQSLLNSGNQKNYLAWYQQKPGQPPKLLIYGASTRESGVPDRFTGSGSGTDFTLTISSVQAEDLAVYYCQNDHSHPYTFGGGTKLEIK
The molecule B11 yielded a dissociation constant Kd in test [1] of 1.3 nM.

B12: V0057 (antibody, V domains shown)
VH: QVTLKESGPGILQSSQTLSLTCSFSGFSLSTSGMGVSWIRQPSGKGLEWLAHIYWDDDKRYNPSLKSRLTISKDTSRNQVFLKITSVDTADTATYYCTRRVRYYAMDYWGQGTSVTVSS
VL: DIVMTQSPSSLSVSAGEKVTMSCKSSQSLLNSGNQKNYLAWYQQKPGQPPKLLIYGASTRESGVPDRFTGSGSGTDFTLTISSVQAEDLAVYYCQNDHSHPYTFGGGTKLEIK
Turning to B12, in test [1], the dissociation constant Kd came out at 17.4 nM.

B13: V0054 (antibody, V domains shown)
VH: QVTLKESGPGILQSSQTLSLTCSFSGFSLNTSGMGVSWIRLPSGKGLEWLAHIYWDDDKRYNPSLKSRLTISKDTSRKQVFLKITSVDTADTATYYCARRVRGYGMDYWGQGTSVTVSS
VL: DIVMTQSPSSLSVSAGEKVTMSCKSSQSLLNSGNQKNYLAWYQQKPGQPPKLLIYGTSTRESGVPDRFTGSGSGTDFTLTISSVQAEDLAVYYCQNDHSHPYTFGGGTKLEIK
In the case of B13, the Kd in test [1] turned out to be 105 nM.

B14: V0026 (antibody, V domains shown)
VH: QVQLQQSGPELVKPGASVKISCKASGYSFTDYYINWVKQRPGQGLEWIGWIFPGSDSTYYNEKFKGKATLTVDKSSSTASMLLSSLTSEDSAVYFCARPTVVARDYAMDYWGQGTSVTVSS
VL: DVLMTQTPLSLPVSLGDQASISCRSSQSIVYSNGNTYLEWYLQKPGQSPKLLIYKVSNRFSGVPDRFSGSGSGTDFTLKISRVEAEDLGVYYCFQGSHVPYTFGGGTKLEIK
Consider B14, for which binding in test [1] was characterised by a dissociation constant (Kd) of 0.7 nM. This molecule also yielded a 50% effective concentration (EC50) in test [2] of 5.61 nM.

B15: V0031 (antibody, V domains shown)
VH: QVQLQQPGTELVKPGASVKLSCKASGYTFTSYWMHWVKQRPGQGLEWIGNIYPSNGGTYYNEKFKSKATLTVDKSSSTAYMQLSSLTSEDSAVYYCARSSVVGRDYAMDYWGQGTSVTVSS
VL: DVLMTQTPLSLPVSLGDQASIACRSSQSIVHSNGNTYLEWYLQKPGQSPELLIYKVSNRFSGVPDRFSGSGSGTDFTLKISRVEAEDLGVYYCFQGSHVPYTFGGGTKLEIK
In turn, B15 yielded a dissociation constant (Kd) in test [1] of 57.7 nM. This molecule returned an EC50 in test [2] of 8.8 nM.

B16: V0032 (antibody, V domains shown)
VH: QVQLKQSGAELVRPGASVKLSCKTSGYTFTDYYIKWVKQRPGQGLEWIARIYPGSGNTYYNEKFKGKATLTAEKSSSTAYMQLSSLTSEDSAVYFCARPAYYSKDYAMEYWGQGTSVTVSS
VL: DVLMTQTPLSLPVSLGDQASISCRSSQSIVYTNGNTYLEWYLQKPGQSPKLLIYKVSNRFSGVPDRFSGSGSGTDFTLKISRVEAEDLGVYYCFQGSHVPYTFGGGTKLEIK
Regarding B16, in test [1], the Kd came out at 17.5 nM. The midpoint of the response in test [2], the EC50, lay at 14.3 nM.

B17: V0027 (antibody, V domains shown)
VH: QVQLQQSGPELVKPGASVKISCKASGYTFTEYYLNWMKQRPGQGLEWIGWIFPGRGSTNYNEKFKGKATLTVDKSSSTAYMLLSSLTSEDSAVYFCARPTIVARDYAMDYWGQGTSVTVSS
VL: DVLMTQTPLSLPVSLGDQASISCRSSQSIVHRNGNTYLEWYLQKPGQSPKLLIYKVSNRFSGVPDRFSGSGSGTDFTLKISRVEAEDLGVYYCFQGSHVPFTFGSGTKLEIK
Turning to B17, the Kd in test [1] amounted to 10.5 nM. For the same molecule, a half-maximal effect in test [2] (EC50) was put at 3.51 nM.

B18: V0004 (antibody, V domains shown)
VH: QVQLQQPGAELVKPGASVKLSCKASDYTFTNYWMHWVKQRPGRGLEWIGRIDPNSGGTRYNEKFKNKATLTVDKPSSTAYMHLSSLTSEDSAVYYCAGDFDVWGTGTTVTVSS
VL: DIQMTQSPASLSASVGETVTITCRASGNIHNYLAWYQQRQGKSPQLLVYNAKTLPDGVPSRFSGSGSGTQYSLKINSLQPEDFGSYCCQHFWSTPLTFGAGTKLELK
With B18, the “selectivity for ePHF over wild type tau” value in test [4] stood at 100 fold. This molecule also came in with a dissociation constant Kd in test [1] of 20 nM. The same molecule displayed a concentration for a half-maximal effect (EC50) in test [2] of 0.083 nM.

B19: V0009 (antibody, V domains shown)
VH: EVQLVESGGALVQPGGSLSLSCAASGFTFTDYYMSWVRQPPGKALEWLALIRNKAKGFTTEYSASVKGRFTISRDNSQSILLFQMNDLRADDSATYYCVRDINYWGQGTTLTVSS
VL: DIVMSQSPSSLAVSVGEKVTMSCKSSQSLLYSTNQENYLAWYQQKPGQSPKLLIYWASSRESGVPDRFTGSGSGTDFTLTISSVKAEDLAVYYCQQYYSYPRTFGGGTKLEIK
Turning to B19, in test [4], the “selectivity for ePHF over wild type tau” value is more than 100 fold. This molecule also came in with an equilibrium dissociation constant (Kd) in test [1] of 0.2 nM. Moreover, the midpoint of the response in test [2], the EC50, lay at 0.038 nM.

The values above are taken from US12709641B2, “Tau binding compounds” (VOYAGER THERAPEUTICS, INC., dated 2026).
